Results on 13 molecules are retold here after patent US20240245805A1 (Orna Therapeutics, Inc., priority 2020, published 2024).

To fix the notation:
B1: EV J 1631 (nucleic acid, listed as Enterovirus sp.)
chain: CACCCTGAGGGCCCACGTGGCGTAGTACTCTGGTATCAAGGTACCTTTGTACGCCTATTTTATTTCCCTTCCCCCACAGTAACTTAGAAGCTTATCTCATAGTTCAACAGTAGGGTCACTAACCAAGTGGCTCAGCGAACAAGCACTTCTGTTTCCCCGGTCCTAGTACCTGTGAAGCTGTACCCACGGCGGAAGGGGAAAAAGATCGTTATCCGGCCCCCTACTTCGGAAAGCCTAGTAACACCATTGAAGCAATCGAGTGTTGCGCTCAGCACAGTAACCCCTGTGTAGCTTTGGTTGATGAGTCTGGGCACTCCCCACTGGCGACAGCGGCCCAGGCTGCGTTGGCGGCCAACCGACTCGGGCAACCGGGTCGGACGCTCGTTTGTGGACATGGTGTGAAGAGCCTACTGAGCTAGAGGGTAGTCCTCCGGCCCCTGAATGCGGATAATCCTAACCCCGGAGCACCCACACTCAATCCAGAGTGCAGGATGTCGTAACGCGTAAGTCTGGGACGGAACCGACTACTTTGGGTGTCCGTGTTTCCTGTTTTACTTACTTTGGCTGCTTATGGTGACAATCTAGTGTTGTTACCATATAGCTATTGGATTGGCCATCCGGTGTTTTGAATTGTGTGTTTATACTAATTCTTTTACATATCACAGACAACCAAAT
modifications: lipid formulation
B2: EV C102 (nucleic acid, listed as Enterovirus sp.)
chain: CTTTGTACGCCTGTTTTACATCCCCTCCCCCACGTAACTTTAGAAGCAATTCAACAAGTTCAATAGAGGGGGTACAAACCAGTATCACCACGAACAAGCACTTCTGTTTCCCCGGTGATTTTACATAAGCTGTGCCCACGGCTGAAAGTGAATGATCCGTTACCCGCTCGAGTACTTCGAAAAGCCTAGTATCGCTTTGGGATCTTCGACGCGTTGCGCTCAGCACTCTACCCCGAGTGTAGCTTAGGCTGATGAGTCTGGGCATTCCCCATCGGCGACGATGGCCCAGGCTGCGTTGGCGGCCTACCCATGGCTAACGCCATGGGACGCTAGTTGTGAACAAGGTGTGAAGAGCCTATTGAGCTACTCGAGAGTCCTCCGGCCCCTGAATGCGGCTAATCCCAACCACGGATCAGGTGCCTCCAACCCAGGAGGTGGCCTGTCGTAACGCGCAAGTCTGTGGCGGAACCGACTACTTTGGGTGTCCGTGTTTCCTTTTATCTTTTAAATGGCTGCTTATGGTGACAATCATAGATTGTTATCATAAAGCGAATTGGATTGGCCATCCGGTGAAATACAAACACATTATTTACTTGTTTGTTGGATTTACTCCGCTCACACAGCTTACTCCTAAGATAATATTTATTGTATTGCTGGTAAGGAGACACTATTATA
modifications: lipid formulation
B3: EV D94 (nucleic acid, listed as Enterovirus sp.)
chain: CGTGGCGGCCAGTACTCTGGTATCACGGTACCTTTGTACGCCTGTTTTATATCCCCTTCCCCCGCAACTTAGAAGAAAACAAATCAAGTTCACTAGGAGGGGGTACAAACCAGTACCACCACGAACAAGCACTTCTGTTTCCCCGGTGATGTCGTATAGACTGTAACCACGGTTGAAAACGATTGATCCGTTATCCGCTCTTGTACTTCGAAAAGCCCAGTATCACCTTGGAATCTTCGATGCGTTGCGCTCAGCACTCAACCCCAGAGTGTAGCTTAGGTCGATGAGTCTGGACACTCCTCACCGGCGACGGTGGTCCAGGCTGCGTTGGCGGCCTACCTGTGGTCCAAAGCCACAGGACGCTAGTTGTGAACAAGGTGTGAAGAGCCTATTGAGCTACAAGAGAATCCTCCGGCCCCTGAATGCGGCTAATCCTAACCACGGAGCAAGGGTACACAAACCAGTGTATATCTTGTCGTAACGCGCAAGTCTGTGGCGGAACCGACTACTTTGGGTGTCCGTGTTTCCTTTTGTTTTTATCATGGCTGCTTATGGTGACAATCTAAGATTGTTATCATATAGCTGTTGGATTGGCCATCCGGTAATTTATTGAGATTTGAGCATTTGCTTGTTTCTTCAACAATTTCACCTATTCATTGCATTTCAGCAGTCAAA
modifications: lipid formulation
B4: EV 30 (nucleic acid, listed as Enterovirus sp.)
chain: AAGCAAGGCAAACCTGACCAATAGTAGGTGTGGCACACCAGCCGCATTTTGGTCAAGCACTTCTGTTTCCCCGGACCGAGTATCAATAAGCTGCTCACGCGGCTGAAGGAGAAACCGTTCGTTACCCGACCAGCTACTTCGAGAAACCTAGTAACACTATGAACGTTGCGGAGTGTTTCGTTCAGCACTTCCCCCGTGTAGATCAGGTCGATGAGTCACCGCATTCCTCACGGGTGACCGTGGCGGTGGCTGCGTTGGCGGCCTGCCTACGGGTTCGCCCGTAGGACGCTCTAATACCGACATGGTGTGAAGAGTCCATTGAGCTAGCTGGTAGTCCTCCGGCCCCTGAATGCGGCTAATCCTAACTGCGGAGCAGGTGCTCACAGACCAGTGAGTAGCCTGTCGTAACGGGCAACTCTGCAGCGGAACCGACTACTTTGGGTGTTTTTCCTTTTTTCTTCTCTTATATTGGCTGCTTATGGTGACAATTAAAGAATTGTTACCATATAGCTATTGGATTGGCCATCCGGTGACGAGCAGAGCCATTGTTTACCTCTTTGTTGGATTTGTACCTTTGAACCACAAAGTCTTGAATACCATTCATCTCATTTTAAAGTTCAACTCAGCTAAAAGAAA
modifications: lipid formulation
B5: PSIV (2x mut for Xbal) (nucleic acid)
DNA: GCAAAATGGGTACGTAGTTAACCACTGCGTATCAGGATTGCAGGCCACGAAGGGTATTTGCATATCTTTCTATGCGGTATTACGGCTTAAAACCCGTTGTATCTTGTTGTTTGACTGCCTGTATCACTAGTGGCCATTTTATTTAGGTTAGAGACCCCTGATAGTAGGAGAGTTACAAACTCTTTAAAAATTGTTGACCCCGGAAAAGATGGTGACCCCTGTAAGTAGTTGATCAAGAAGATCTATGCGCTGGCATAGTAATCCAGTGTTTCCTGTTTTAGGATGACCTCTGAAAGTAGATGACCGTGGAAAGTCACGTAGTGCCCCAATAAGCACGTTTGGGCAGCGTGCGCTATCACAAGGCTTGATCTCCGAGGAGCCCCTTGTTTTAGCTGGCTGGAAGCCAATGATCTTAAGTAGATAAGTGCTGTTGCTTGTAGTTCAACAGAAAGCTTTGAGTACGTCTTTCTTGCGAGAAAGAACACATGCATTCTTATGCTCTCAATTCTATTATTTTTATTTTGGGCGAAAGGAAAGCTCTCACGCGAGTACGAATAGCCAACCCTTTAT
modifications: lipid formulation
B6: EV I (nucleic acid)
chain: TTAGTACTTTCTCACGGGGATAGTGGTATCCCTCCCTAGTAATTTAGAAGACTTGAAAAACCGACCAATAGGCACCTCGCATCCAGCGGGGTAAAGGTCAAGCACTTCTGTTTCCCCGGGTCGAGTAGCGATAGACTGTGCCCACGGTCGAAGGTGAAACAACCCGTTATCCGACTTTGTACTTCGGGAAGCCTAGTACCACCAAAGATTATGCTTGGGGTTTCGCTCAGCACGACCCTGGTGTAGATCAGGCCGATGGATCACCGCATTCCTCACAGGCGACTGTGGCGGTGGTCGCGTGGCAGCCTGCCGATGGGGCAACCCATCGGACGCCAAGCATATGACAGGGTGTGAAGAGCCTACTGAGCTACAAAGTATTCCTCCGGCCCCTGAATGCGGCTAATCCCAACCACGGAGCATTTGCTACCAAACCAGGTAGTGGAATGTCGTAACGGGTAACTCTGTGGCGGAACCGACTACTTTGGGTGTCCGTGTTTCCTTTTAATTTATCATTCTGTATATGGTGACAACTATAGTGCTATCTCGATTTGCATTACTATTGTTGAGATTAAAACTTTATTACATTGTTGCATTTTACCCTTTGAGTGAGTTTTCACCTGAACAGATTAATTTACTCATCCTGTTTATATATTACAAGCAGAAATACTTGCAAAG
modifications: lipid formulation; Enterovirus I
B7: EV F1 BEV 261 (nucleic acid, listed as Enterovirus sp.)
chain: GCAATGCTGCACCAGTGCACTGGTACGCTAGTACCTTTTCACGGAGTAGATGGTATCCCTTACCCCGGAACCTAGAAGATTGCACACAAACCGACCAATAGGCGCACCGCATCCAGCCGTGCAGCGGTCAAGCACTTCTGTCTCCCCGGTCTGTAAAGATCGTTATCCGCCCGACCCACTACGAAAAGCCTAGTAACTGGCCAAGTGAACGCGAAGTTGCGCTCCGCCACAACCCCAGTGGTAGCTCTGGAAGATGGGGCTCGCACCACCCCCGTGGTAACACGGTTGCCTGCCCGCGTGTGCTTCCGGGTTCGGTCTCGTGCCGTTCACTTCAACTTCACGCAACCAGCCAAGAGCCTATTGTGCTGGGACGGTTTTCCTCCGGGGCCGTGAATGCTGCTAATCCCAACCTCCGAGCGTGTGCGCACAATCCAGTGTTGCTACGTCGTAACGCGTAAGTTGGAGGCGGAACAGACTACTTTCGGTACCCCGTGTTTCCTCTCATTTTATTTAATATTTTATGGTGACAATTGTTGAGATTTGCGCTCTTGCAACGTTGCCATTGAATATTGGCTTATACTATTTGGTTGCCTTTTACAAAACCTCTGATATACCCAGTTCTTACATTGATCTGCTTGTTTTTCTCAATTTGAAGTATAGACTACAAATAGCAAA
modifications: lipid formulation

One series concerns 1C1C7 cells. In words: 5′ UTR variants, GLuc in 1C1C7 cells. As to conditions: CK IRES with 5′ UTR variants. It counts as cell-based. An excerpt:
This example describes modifications of circular RNAs by inserting 5′ UTR variants. […] 1C1C7 cells were transfected with the circular RNAs.
Take “UTR3: 5′ UTR variant: "a higher-GC/structured spacer with a kozak sequence" (UTR3) (DNA CGAACTAGTATTCTTCTGGTCCCCACAGACTCAGAGAGAACCCGCCACC; 5' UTR segment within a circular RNA construct, further chemistry not given here)”: the translation result is reported as “did not show the same benefit”.

A further series concerns HEK293 cells.
Experiment: not given
It counts as cell-based, human. The settings on record: circular RNA encoding Gluc with the listed IRES (UTR truncated to 675 nt) transfected into HEK293 cells; supernatant after 24 hours.
Take B1: the “Expression (luminescence from secreted Gluc protein)” value (“Expression” for short) worked out at 9.88E+07.

Consider B2, for which the “Expression” value is 8.85E+07.

As to B3, the “Expression” value is recorded as 9.25E+07.

As to B4, the “Expression” value was 5.48E+06.

On to B5, for which the “Expression” value came to 9.70E+04.

Regarding B6, the “Expression” value is recorded as 1.31E+08.

As for B7, the “Expression” value is reported as 1.12E+07.

System in the next series: not given
Experiment: not given
The settings on record: Table 1, lipids of Formula I; cited from earlier work.
`CCCCCCCCC(CCCCCC)CCCOC(=O)CCCCCN(CCCCCC(=O)OCC(CCCCCC)CCCCCCCC)CCN(C)C` (stereo not shown) [Lipid I-22]: the pKa is 6.53.

Consider `CCCCCCCCCCCCC(CCCCCCCCCC)C(=O)OCCCCCCN(CCCCCCOC(=O)C(CCCCCCCCCC)CCCCCCCCCCCC)CCN(C)C` (stereo not shown) [Lipid I-39], for which the pKa is listed as 6.82.

In the case of `CCCCCCCCC(CCCCCC)CCCOC(=O)CCCCCN(CCCCCC(=O)OCC(CCCCCC)CCCCCCCC)CCN(C)CC` (stereo not shown) [Lipid I-33], the pKa is on record as 6.27.

The same series, now with this note: Table 2, lipids of Formula (II); cited from earlier work.
`CCCCCCCCC(=O)N(CCCN(C)C)C(CCCCCCCCC(=O)OCC(CCCC)CCCC)CCCCCCCCC(=O)OCC(CCCC)CCCCCC` (stereo not shown) [II-9]: the pKa is 6.27.

Consider `CCCCCCCCC(CCCC)COC(=O)CCCCCCCCC(CCCCCCCCC(=O)OCC(CCCC)CCCCCC)N(CCCN(C)C)C(=O)C(CC)CCCCC` (stereo not shown) [II-35], for which the pKa was 5.97.
